Laboratory results as given in the supplement of paper PMC9112550, “Optimization of the antimicrobial peptide Bac7 by deep mutational scanning” (BMC Biology, 2022).

Each sequence was assayed on Escherichia coli TOP10 (assay: shrunken log2 fold change of peptide-encoding DNA abundance (4.5 h post-induction vs induction); higher = less antimicrobial activity (less host growth inhibition)). Settings: time post-induction: 4.5 h; library: site-saturation at positions 5, 18, 19, 20.
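Further: peptides expressed intracellularly from a pBAD plasmid library in pooled LB shake-flask culture, induced with 0.3% L-arabinose, DNA abundance read by NGS, three biological replicates, DESeq2 with apeglm shrinkage.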

Row | Sequence | shrunken log2 fold change
1 | RRIRWRPPRLPRPRPRPSVMPRP | -0.333
2 | RRIRNRPPRLPRPRPRPEIEPRP | 0.0339
3 | RRIRSRPPRLPRPRPRPIFTPRP | -0.275
4 | RRIRDRPPRLPRPRPRPEKKPRP | -0.0317
5 | RRIRDRPPRLPRPRPRPSNCPRP | -0.576
6 | RRIRERPPRLPRPRPRPVNYPRP | -0.0115
7 | RRIRKRPPRLPRPRPRPIGAPRP | 0.479
8 | RRIRPRPPRLPRPRPRPVYTPRP | -0.234
9 | RRIRPRPPRLPRPRPRPMADPRP | 0.131
10 | RRIRDRPPRLPRPRPRPLLSPRP | 0.447
11 | RRIRARPPRLPRPRPRPHQQPRP | 0.33
12 | RRIRSRPPRLPRPRPRPPSHPRP | 0.103
13 | RRIRQRPPRLPRPRPRPVQSPRP | 0.0508
14 | RRIRPRPPRLPRPRPRPMSHPRP | 0.0914
15 | RRIRVRPPRLPRPRPRPVCSPRP | -0.11
16 | RRIRVRPPRLPRPRPRPGEDPRP | 0.0912
17 | RRIRDRPPRLPRPRPRPIPRPRP | -0.187
18 | RRIRQRPPRLPRPRPRPEFQPRP | -0.0764
19 | RRIRERPPRLPRPRPRPLYFPRP | -0.764
20 | RRIRHRPPRLPRPRPRPRHPPRP | 0.0823
21 | RRIRFRPPRLPRPRPRPDQTPRP | 0.0441
22 | RRIRYRPPRLPRPRPRPGAKPRP | 0.379

Row | Sequence | shrunken log2 fold change
23 | RRIRWRPPRLPRPRPRPQALPRP | 0.113
24 | RRIRIRPPRLPRPRPRPPCFPRP | -0.11
25 | RRIRGRPPRLPRPRPRPQYGPRP | -0.008
26 | RRIRARPPRLPRPRPRPHEGPRP | 0.148
27 | RRIRRRPPRLPRPRPRPPHAPRP | 1.52
28 | RRIRLRPPRLPRPRPRPFWRPRP | 0.252
29 | RRIRQRPPRLPRPRPRPNNPPRP | -0.282
30 | RRIRMRPPRLPRPRPRPWEHPRP | 0.0244
31 | RRIRKRPPRLPRPRPRPDTNPRP | 0.335
32 | RRIRQRPPRLPRPRPRPMYTPRP | -0.639
33 | RRIRERPPRLPRPRPRPITSPRP | 0.0102
34 | RRIRRRPPRLPRPRPRPQTVPRP | -0.0201
35 | RRIRDRPPRLPRPRPRPMHTPRP | 0.0757
36 | RRIRKRPPRLPRPRPRPVRWPRP | 0.809
37 | RRIRLRPPRLPRPRPRPSHMPRP | -0.228
38 | RRIRFRPPRLPRPRPRPWMEPRP | -0.706
39 | RRIRFRPPRLPRPRPRPWYFPRP | -0.303
40 | RRIRTRPPRLPRPRPRPCQAPRP | -0.0455
41 | RRIRDRPPRLPRPRPRPTGYPRP | 0.0485
42 | RRIRFRPPRLPRPRPRPSNIPRP | -0.864
43 | RRIRVRPPRLPRPRPRPDCGPRP | -0.0382
44 | RRIRLRPPRLPRPRPRPNFYPRP | -0.141

Row | Sequence | shrunken log2 fold change
45 | RRIRRRPPRLPRPRPRPCWQPRP | 0.285
46 | RRIRIRPPRLPRPRPRPDFRPRP | -0.371
47 | RRIRERPPRLPRPRPRPHELPRP | -0.0556
48 | RRIRSRPPRLPRPRPRPQKGPRP | -0.0456
49 | RRIRCRPPRLPRPRPRPKASPRP | -0.00163
50 | RRIRWRPPRLPRPRPRPEVCPRP | 0.000572
51 | RRIRMRPPRLPRPRPRPVMCPRP | 0.321
52 | RRIRKRPPRLPRPRPRPLHVPRP | 0.0446
53 | RRIRIRPPRLPRPRPRPNPEPRP | -0.0503
54 | RRIRVRPPRLPRPRPRPPQDPRP | 0.27
55 | RRIRARPPRLPRPRPRPPYIPRP | -0.38
56 | RRIRIRPPRLPRPRPRPMAHPRP | -0.0137
57 | RRIRGRPPRLPRPRPRPPTTPRP | 0.91
58 | RRIRIRPPRLPRPRPRPQDHPRP | -0.466
59 | RRIRHRPPRLPRPRPRPHHHPRP | -1
60 | RRIRYRPPRLPRPRPRPKWTPRP | -0.298
61 | RRIRLRPPRLPRPRPRPVSGPRP | 0.525
62 | RRIRHRPPRLPRPRPRPMYEPRP | -0.0116
63 | RRIRWRPPRLPRPRPRPNTRPRP | 0.15
64 | RRIRPRPPRLPRPRPRPPHQPRP | 0.146
65 | RRIRARPPRLPRPRPRPGGMPRP | 0.337
66 | RRIRMRPPRLPRPRPRPCGWPRP | 1.03

Row | Sequence | shrunken log2 fold change
67 | RRIRYRPPRLPRPRPRPVMRPRP | 0.0461
68 | RRIRFRPPRLPRPRPRPAPNPRP | 0.408
69 | RRIRLRPPRLPRPRPRPNQLPRP | -0.407
70 | RRIRDRPPRLPRPRPRPSTVPRP | 0.154
71 | RRIRLRPPRLPRPRPRPKNTPRP | -0.333
72 | RRIRHRPPRLPRPRPRPINAPRP | 0.0354
73 | RRIRKRPPRLPRPRPRPRGRPRP | 1.04
74 | RRIRMRPPRLPRPRPRPILLPRP | -0.0378
75 | RRIRGRPPRLPRPRPRPLNGPRP | 0.11
76 | RRIRVRPPRLPRPRPRPQQDPRP | 0.151
77 | RRIRHRPPRLPRPRPRPHNVPRP | -0.195
78 | RRIRVRPPRLPRPRPRPGPKPRP | 0.254
79 | RRIRSRPPRLPRPRPRPHWIPRP | -0.279
80 | RRIRLRPPRLPRPRPRPAMKPRP | -0.0543
81 | RRIRGRPPRLPRPRPRPPLVPRP | 0.813
82 | RRIRHRPPRLPRPRPRPMANPRP | -0.0536
83 | RRIRFRPPRLPRPRPRPVAMPRP | -0.0306
84 | RRIRRRPPRLPRPRPRPFTFPRP | -0.247
85 | RRIRMRPPRLPRPRPRPLSSPRP | -0.0576
86 | RRIRRRPPRLPRPRPRPPSSPRP | 0.303
87 | RRIRVRPPRLPRPRPRPPCEPRP | 0.229
88 | RRIRGRPPRLPRPRPRPMIYPRP | 0.0378

Row | Sequence | shrunken log2 fold change
89 | RRIRPRPPRLPRPRPRPQANPRP | -0.137
90 | RRIRGRPPRLPRPRPRPQATPRP | 1.2
91 | RRIRHRPPRLPRPRPRPPELPRP | 0.469
92 | RRIRDRPPRLPRPRPRPTIYPRP | 0.0468
93 | RRIRTRPPRLPRPRPRPHYIPRP | -0.105
94 | RRIRHRPPRLPRPRPRPVKHPRP | 0.0596
95 | RRIRARPPRLPRPRPRPDIQPRP | -0.149
96 | RRIRDRPPRLPRPRPRPMPWPRP | -0.0438
97 | RRIRWRPPRLPRPRPRPLVEPRP | 0.2
98 | RRIRDRPPRLPRPRPRPICDPRP | 0.137
99 | RRIRVRPPRLPRPRPRPAATPRP | 0.609
100 | RRIRSRPPRLPRPRPRPEFPPRP | 0.123
101 | RRIRKRPPRLPRPRPRPDCHPRP | 0.233
102 | RRIRDRPPRLPRPRPRPMKAPRP | 0.0349
103 | RRIRCRPPRLPRPRPRPDPAPRP | 0.412
104 | RRIRCRPPRLPRPRPRPVIRPRP | -0.733
105 | RRIRIRPPRLPRPRPRPWVLPRP | -0.142
106 | RRIRFRPPRLPRPRPRPLCQPRP | -0.12
107 | RRIRERPPRLPRPRPRPPLIPRP | -0.435
108 | RRIRARPPRLPRPRPRPAFKPRP | 0.126
109 | RRIRSRPPRLPRPRPRPYSNPRP | -0.549
